The target in the assay is SPSB3–ELOBC heterotrimeric complex (SPSB3 amino acids 83–326 with elongin B and elongin C) (human | , UniProt Q6PJ21 83-326; Q15370 1-118; Q15369 1-112). Nature of the assay: BLI. On the technique in general: Biolayer interferometry detects binding as a change in optical thickness at a sensor tip.

This note sets out measurements from PMC10972748 (2024).

B1: His-Halo-tagged cGAS single point mutant of Glu515 (natural protein)
chain: MQPWHGKAMQRASEAGATAPKASARNARGAPMDPTESPAAPEAALPKAGKFGPARKSGSRQKKSAPDTQERPPVRATGARAKKAPQRAQDTQPSDATSAPGAEGLEPPAAREPALSRAGSCRQRGARCSTKPRPPPGPWDVPSPGLPVSAPILVRRDAAPGASKLRAVLEKLKLSRDDISTAAGMVKGVVDHLLLRLKCDSAFRGVGLLNTGSYYEHVKISAPNEFDVMFKLEVPRIQLEEYSNTRAYYFVKFKRNPKENPLSQFLEGEILSASKMLSKFRKIIKEEINDIKDTDVIMKRKRGGSPAVTLLISEKISVDITLALESKSSWPASTQEGLRIQNWLSAKVRKQLRLKPFYLVPKHAKEGNGFQEETWRLSFSHIEKEILNNHGKSKTCCENKEEKCCRKDCLKLMKYLLEQLKERFKDKKHLDKFSSYHVKTAFFHVCTQNPQDSQWDRKDLGLCFDNCVTYFLQCLRTEKLENYFIPEFNLFSSNLIDKRSKEFLTKQIEYERNNAFPVFDEF
What is called Kd is the concentration at which binding is half-saturated. Read a high Kd as weaker binding. The molecule B1 showed a dissociation constant Kd of 453 nM.

B2: His-Halo-tagged cGAS single point mutant of Arg512 (natural protein)
chain: MQPWHGKAMQRASEAGATAPKASARNARGAPMDPTESPAAPEAALPKAGKFGPARKSGSRQKKSAPDTQERPPVRATGARAKKAPQRAQDTQPSDATSAPGAEGLEPPAAREPALSRAGSCRQRGARCSTKPRPPPGPWDVPSPGLPVSAPILVRRDAAPGASKLRAVLEKLKLSRDDISTAAGMVKGVVDHLLLRLKCDSAFRGVGLLNTGSYYEHVKISAPNEFDVMFKLEVPRIQLEEYSNTRAYYFVKFKRNPKENPLSQFLEGEILSASKMLSKFRKIIKEEINDIKDTDVIMKRKRGGSPAVTLLISEKISVDITLALESKSSWPASTQEGLRIQNWLSAKVRKQLRLKPFYLVPKHAKEGNGFQEETWRLSFSHIEKEILNNHGKSKTCCENKEEKCCRKDCLKLMKYLLEQLKERFKDKKHLDKFSSYHVKTAFFHVCTQNPQDSQWDRKDLGLCFDNCVTYFLQCLRTEKLENYFIPEFNLFSSNLIDKRSKEFLTKQIEYEANNEFPVFDEF
Turning to B2, the Kd was determined as 957 nM.

B3: His-Halo-tagged cGAS single point mutant of Asp465 (natural protein)
chain: MQPWHGKAMQRASEAGATAPKASARNARGAPMDPTESPAAPEAALPKAGKFGPARKSGSRQKKSAPDTQERPPVRATGARAKKAPQRAQDTQPSDATSAPGAEGLEPPAAREPALSRAGSCRQRGARCSTKPRPPPGPWDVPSPGLPVSAPILVRRDAAPGASKLRAVLEKLKLSRDDISTAAGMVKGVVDHLLLRLKCDSAFRGVGLLNTGSYYEHVKISAPNEFDVMFKLEVPRIQLEEYSNTRAYYFVKFKRNPKENPLSQFLEGEILSASKMLSKFRKIIKEEINDIKDTDVIMKRKRGGSPAVTLLISEKISVDITLALESKSSWPASTQEGLRIQNWLSAKVRKQLRLKPFYLVPKHAKEGNGFQEETWRLSFSHIEKEILNNHGKSKTCCENKEEKCCRKDCLKLMKYLLEQLKERFKDKKHLDKFSSYHVKTAFFHVCTQNPQDSQWDRKDLGLCFANCVTYFLQCLRTEKLENYFIPEFNLFSSNLIDKRSKEFLTKQIEYERNNEFPVFDEF
Take B3: the dissociation constant Kd turned out to be 818 nM.
